In patent US20170166618A1 (Novartis, published 2017):

Biological target: FGF23 receptor
Assay: cell-based or functional assay

B1: sKlotho-FGF23-6×His fusion polypeptide (ligand)
chain: EPGDGAQTWARFSRPPAPEAAGLFQGTFPDGFLWAVGSAAYQTEGGWQQHGKGASIWDTFTHHPLAPPGDSRNASLPLGAPSPLQPATGDVASDSYNNVFRDTEALRELGVTHYRFSISWARVLPNGSAGVPNREGLRYYRRLLERLRELGVQPVVTLYHWDLPQRLQDAYGGWANRALADHFRDYAELCFRHFGGQVKYWITIDNPYVVAWHGYATGRLAPGIRGSPRLGYLVAHNLLLAHAKVWHLYNTSFRPTQGGQVSIALSSHWINPRRMTDHSIKECQKSLDFVLGWFAKPVFIDGDYPESMKNNLSSILPDFTESEKKFIKGTADFFALCFGPTLSFQLLDPHMKFRQLESPNLRQLLSWIDLEFNHPQIFIVENGWFVSGTTKRDDAKYMYYLKKFIMETLKAIKLDGVDVIGYTAWSLMDGFEWHRGYSIRRGLFYVDFLSQDKMLLPKSSALFYQKLIEKNGFPPLPENQPLEGTFPCDFAWGVVDNYIQVDTTLSQFTDLNVYLWDVHHSKRLIKVDGVVTKKRKSYCVDFAAIQPQIALLQEMHVTHFRFSLDWALILPLGNQSQVNHTILQYYRCMASELVRVNITPVVALWQPMAPNQGLPRLLARQGAWENPYTALAFAEYARLCFQELGHHVKLWITMNEPYTRNMTYSAGHNLLKAHALAWHVYNEKFRHAQNGKISIALQADWIEPACPFSQKDKEVAERVLEFDIGWLAEPIFGSGDYPWVMRDWLNQRNNFLLPYFTEDEKKLIQGTFDFLALSHYTTILVDSEKEDPIKYNDYLEVQEMTDITWLNSPSQVAVVPWGLRKVLNWLKFKYGDLPMYIISNGIDDGLHAEDDQLRVYYMQNYINEALKAHILDGINLCGYFAYSFNDRTAPRFGLYRYAADQFEPKASMKHYRKIIDSNGFPGPETLERFCPEEFTVCTECSFFHTRKSLGSGGGGSGGGGSGGGGSLKYPNASPLLGSSWGGLIHLYTATARNSYHLQIHKNGHVDGAPHQTIYSALMIRSEDAGFVVITGVMSRRYLCMDFRGNIFGSHYFDPENCRFQHQTLENGYDVYHSPQYHFLVSLGRAKRAFLPGMNPPPYSQFLSRRNEIPLIHFNTPIPRRHTQSAEDDSERDPLNVLKPRARMTPAPASCSQELPSAEDNSPMASDPLGVVRGGRVNTHAGGTGPEGCRPFAKFIHHHHHH
Egr-1-luciferase reporter activity, fold change at about 0.6 nM, with heparin (20 µg/ml): 2 fold change
Egr-1-luciferase reporter activity, fold change at about 1.21 nM, no heparin: 1.2 fold change
Egr-1-luciferase reporter activity, fold change at about 19.3 nM, no heparin: 2.4 fold change
